{"source": "the DeepSol protein solubility set"}
{"assay": "soluble on expression in E. coli; label from the status in PepcDB or PDB records"}
{"sequence": "MLSKTVFDASQERMEVIFSEFDNIIVSFSGGKDSAVMLHLMIDYIRKNNIQKKIYVYHLDYEGQYSATSDFVAEMLTSNLDIIEPLWCCLPIAAQSAVSMYTDHWIPWEKSKQDIWVREMPDYPSVINEDNAPFDFDFHTIWDYEFNKKLIHWLHTKNKAEKTIALIGIRQQESLNRYNAIHKKERMYKNYNWTTEISKNIYNAYPIHDWLVEDIWTANAKFDWPYNKIYDLFYQAGLTLNDMRVASPFNDSATESLKLYRVIEPALWSKLVGRVNGANFTAIYGGTSAMAWKEINLPPNHTWKSYLEFLLTTLPSYTRERYLKKFKTSINYWTEKGGALKVETVEELKNLNVQADFLGKPQNKRTYSNPMEIVRFKEYPDDLKIKEFASVPTYKRMCIAILKNDYTCKYMGFGQTKLELEKRKHALEKYNNIL", "soluble on expression in E. coli": "not soluble"}
{"sequence": "PEYQANVQILVNRKHSSAGADLTGQQADVQMITTYKELITKPVVLKPARQTLMAETDIRRSLESLKQTVSVTSTANSQVFSIGVRDKNAKASAMIANQIAATFKDQVQHIIKVNNVTIVAPAETPDQSVAPKK", "soluble on expression in E. coli": "not soluble"}
{"sequence": "MTFKSATGSGQQGGSSGTSAGNPDSLKQDKISKSGDSLSVVDTGQGDDTHYANLPPSITPTSDPNALSFTNKNNAQRVQLFLRGLLDSIPVLVNKSGQDDLEHHHHHH", "soluble on expression in E. coli": "not soluble"}
{"sequence": "MSEITASRPEVVNGHTDVICSTSIRHILAVRKSTLLQIDTLIRQLAEVSAMTESIRGKTALDWAMKQDFRCGCWLMEKPETAMKAITRNLDRELWRDLMQRSGMLSLMDAQTRDTWYRSLEYDNFPEISEANILSTFEQLHQNKDEVFERGVINVFKGLSWDYKTNSPCKFGSKIIVNNLVRWDRWGFHLITGQQTDRLVDLERMLHLFSGKPIPDNRENITIRLDGHIQSVQGKERYEDEMFIIKYFKKGSAHITFKRLELIDRINDIIARYFPSVLSA", "soluble on expression in E. coli": "not soluble"}
{"sequence": "MSLAKFAPVQYKYIIKAEFEIDGIVDREDIIGAIFGQTEGLLGMELDLRELQKQGKLGRIEVEYKRVGNKTIGTITIPTSLKAVETSLIAAAIETVDRVGPAKARFRVKEIVDVRSSKREYIRNRAKELFVQMMSKTAPDIEELRRELEEAYYSKQLIEYGEEKLPAGPLVEKSDEIILVEGRADVVNLVKHGILNVLGMNGINIPKSVVELSKRKKVTLFIDGDRGGELVLRNMLAAGADIDYVAVAPPGREVEELTNKEILKALKSKIPLEQYIKNLRISINNDENKEKYKELLSKVFDTKKAIVFDEQFNIIDEKPLEEIDKLPSAYGIAIDKILDNETYAKIKGKYQLILALDSNVNAQERVITLKDIQEGHHHHHH", "soluble on expression in E. coli": "not soluble"}
{"sequence": "GSGAVTAGAAPRILKHQVVRAELDRMLDGMRIGDPFPAEREIAEQFEVARETVRQALRELLIDGRVERRGRTTVVARPKIRQPLGMGSYTEAAKAQGLSAGRILVAWSDLTADEVLAGVLGVDVGAPVLQLERVLTTDGVRVGLETTKLPAQRYPGLRETFDHEASLYAEIRSRGIAFTRTVDTIDTALPDAREAALLGADARTPMFLLNRVSYDQDDVAIEQRRSLYRGDRMTFTAVMHAKNSAIVS", "soluble on expression in E. coli": "soluble"}
{"sequence": "MSAQRIQKVDILRYDPANDAEPHMQRFEVPFDETMSVLDAIGYVKDHLDKDLSYRWSCRMAICGSCGIMVNGVPKLACKSFLRDYPEGVKIEPLANFPIEKDLIVDMTPFIERLEAIKPYIIGNDRKPEDGTNLQTPEQMARYKQFAGCINCGLCYAACPQFGLNPEFLGPAALTLAHRYNLDSRDNGKAERMKLINGDNGAWGCTFVGYCSEVCPKHVDPAAAVNQGKVESSLDFVIAMLNPDGSPKKVEA", "soluble on expression in E. coli": "not soluble"}
{"sequence": "MVTEDVRATADDIADMEIRGAATIARAAADALESQATDSDADSPAAFRAELRAAARHLRDTRPTAVSLPNALRYVLGNTDGETVAALRASVTDAADAFRQQLDRAQDDLGAIGANRLRDGDTVMTHCHSTDALACVKAALDDGKHIEAVVKETRPRKQGHITADQLREWGVPVTLIVDNAGRRYLDAVDHVLVGADSIAADGSVINKIGTSMLAVVARERGVPVMVAAQTLKLHPDTLTGNTVEIEMRDETEVLAAADRHQLGAPDVENPAFDVTPPRYVDAIVTERGQFPPESIVTLMRELYGDGTTEPWAEDLEHHHHHH", "soluble on expression in E. coli": "not soluble"}
{"sequence": "MTAKTEDNLKEYTRSQVEQHCTHDDLWLLFRDKVYNMTPYFNQHPGGLAILRYAGKDVTTVLPFVVSHGIAWKIVEQKLQEHLIGKLKE", "soluble on expression in E. coli": "not soluble"}
{"sequence": "MIAELHIADDETAVKVLHLQRRAYTIEAQIIGSKALPPLHDTIASLQRCGERFFGYFQGERLVGAIACKRNGKTLRLCRLMVDPDCFRQGIASALLDFVIKQEPSISEIVVTTGSGNAPAIRFYERHGFRAIERIETPERIELTKLVKRSG", "soluble on expression in E. coli": "not soluble"}
{"sequence": "MRLTDQKRESIVQAAIAEFGDRGFEITSMDRIAARAEVSKRTVYNHFPSKEELFAEMLQRLWNCAPPQSEVVYRPLVSLREQLLELLWGKMRNLTDSSFLDLARVVVGATIHSPERAQVWLARINEREETFSAWIRAAQKDGRLKPVDPGFAATQMHALLKSFAFWPQVTFNAALLTPQEQSNVVESALNMFLGWYEIPG", "soluble on expression in E. coli": "soluble"}
{"sequence": "AGCEGLRIGQSALQARLSDQIDKLTQAEQHANQMLIDVRSRNHDTMKHITAIKSAQPKADTQAYIQNWADQYSQYDRFLKGENAYVAGVLYDFLEKARASNVSVSLHMHTPLSSLPFSPADQVSLVGNILENALDSAAEAREKAEIKLETSLRSGLYVLTCENSTPGMDPKVLDTIYQSFGRSTKNGAHEGMGTYIIQKLVKGAFGRLDFTYRHPIFRLEIKIPFQ", "soluble on expression in E. coli": "not soluble"}
{"sequence": "MSEQFVTISQHVRNPQEAAALFGVHDIHLKRIEEELGVSIVTRGETVNVSGTPQQVQLVNELLRHLLIVIRKGAAVSERDVLYAIQLAKKGALDGLVQLYDEEITKNAKGKPIRVKTLGQRYYVAAIEQYDLTFGIGPAGTGKTYLAVVMAVKALKNGSVKRIILTRPAVEAGESLGFLPGDLKEKVDPYLRPLYDALNDVLGAEYTQRLIERGTIEIAPLAYMRGRTLEDAFVILDEAQNTTPAQMKMFLTRLGFGSKMVITGDISQVDLPKGVESGLSVAKRILASIGGIAFVFLEQSDVVRHPLVAKIIDAYDEAGL", "soluble on expression in E. coli": "not soluble"}
{"sequence": "MRLAVLIDADNAKADAISDLLAEVSKFGVATVKRAYGDWTTTNLQGWKKQLHKYAIQPMQQFSYTRGKNSTDASMIIDGMDLLYTGNFDGFCIVSSDCDFTRLATRFREAGLSVYGFGEKKTPEPFVAACDRFIFTEILGKGETQEKPAATGKADESAASKELLKLLRKAVAAVSGEDGWASLSNLGSHISKIRPSFDSRNYGYSKLSTLVKNLDIFETRMVPSADKLHTDVFLRLKDGKLEHHHHHH", "soluble on expression in E. coli": "not soluble"}
{"sequence": "MAHHHHHHMGTLEAQTQGPGSMSVFSGFPASPPDAILNLTVLYNADTNPKKVNLGVGAYRDESGKPWILPAVKEAEAIISSDLSKYNKEYPPVAGFPLFLEAAQFLMFGKDSKAAQEGRIASCQSLSGTGSLHIGFEFLHLWMPKAEFYMPSTTWPNHYGIYDKVFNKLKVPYKEYTYLRKDGELEIDFSNTKKDIQSAPEKSIFLFHACAHNPSGIDFTEAQWKELLPIMKEKKHIAFFDSAYQGFATGSFEADAFAVRMFVDAGVEVLVAQSFSKNFGLYGERIGCLHVVHAGVEGSVEKNKALSAAMVSGMTLQIRKTWSMSAIHGAYIVQVIVHDKRLLQMFYDNVKEMSARIHRMRSLLHASLAKRKTPGPGSKGTWDHILTAIGMFTFTGLTPEHVDYLKEKWSIYLVKAGGRMSMCGLTESNCDYVAEAIHDAVTKLPFKK", "soluble on expression in E. coli": "soluble"}
{"sequence": "MSKRPVIESEKPAWHDEDDDNMVVAVPKKVKMTMRVELKRTTDEEHGELDSKEYVGRLQEAFRKRHGGTPKWAKAAAGDEEEGSLLKTAAGYLAKDVNLPKTTIHTTLIKDFNIGHRYTRGITVVKFHKTRPVLIVADQGGNVQLFKVSREVKKDRFLQSANFSKFPIDSLEIADKGHSVICSSSRKEYLMQYNMETREVTQLKPPNTVPKQGIRLFAISHDSQFLAIAGHNSHIYVLHATSMEHITTISLPANASEIKFFPSHSREIWIICETGQIVIANIGLPGTKSSQHTFTDDGAVHGTTLAISQHGDYFATGSDTGIVNVYSGNDCRNSTNPRPLFNVSNLVTAVSSIAFNSDAQLMAICSNVKDNHLRLVHVASQTTFKNFPERNGKVTHARCVEFSPNGGYMAVGNDDGRLHVFEIHHFTDY", "soluble on expression in E. coli": "not soluble"}
{"sequence": "MGRYSVKRYKTKRRTRDLDLIYNDLSTKESVQKLLNQPLDETKPGLGQHYCIHCAKYMETAIALKTHLKGKVHKRRVKELRGVPYTQEVSDAAAGYNLNKFLNRVQEITQSVGPEKESNEALLKEHLDSTLANVKTTEPTLPWAAADAEANTAAVTEAESTASAST", "soluble on expression in E. coli": "soluble"}
{"sequence": "MSLNLLFTGASGFLGYNVLPLLKKKYSVETIGLTSQDDYIVNLAAEIPKLAGKYDVILHVAGKAHSLPKTEAEKRLFFDVNLQGTKNLCTALEQSGIPKSFIFISTVAVYGCDSGENITEEYPLNGTTPYALSKIKAEKYLEEWCAMHNVKLSILRPSLIAGPNPPGNLGAMIHGIKSGKYLSIAGGKAQKSVLMVQDIANLVPLLIEKGGIYNVCDSYQPSFRELEMVICKQLNKKLPLSIPYWFAKSMAVFGDCFGEKAPINSLKLRKITHSLTFSNEKAMRELGWKPMNVLKNFREGHHHHHH", "soluble on expression in E. coli": "soluble"}
{"sequence": "AKTTIIAGSAEAPQGSDIQVPVKIENADKVGSINLILSYPNVLEVEDVLQGSLTQNSLFDYQVEGNQIKVGIADSNGISGDGSLFYVKFRVTGNEKAEQAENVKGKLRGLGQQLSEITLRNSHALTLQGIEIYDIDGNSVKVATINGTFRIVSQEEAHHHHHH", "soluble on expression in E. coli": "soluble"}
{"sequence": "MGSDKIHHHHHHMKNIFVFGADEFNLSLMRSLDSAHEYCFHELYQYSEVKTGKEFPVETLYEGALARLNSYPDSVDAIVGYLDFPVSTMLPLLCQSLGLPSPSFEAVLKCEHKYWSRLEQRRVIPEYIPNFCSVDPFKDDYRQQITLDYPFWLKPVKAVLSHLGFMVRDDSELEMAIIEIRKKIYCFAKPFNYLLQFADLPDEIAAVDGYHCIAEGIISHGQQCTLEGYVFDGKLCVYGTVDSIREGEHGSSFSRYQYPSSIPQPIQDKMIAVTERFLTAIDFDNGPFNIEYYWDKDSDHIWLLEINTRISKSHSPLFRNVDGKSHHQIMLDLALGKQPIFPHRKGLYRYSAKFMWRTHADAQVNRVPTEQEIQAITQRIGGTDIQLHVREGMRLSDLNYQDSYSYEIATVFIGGDSEQELLQKYHDVQQALPLELVPLL", "soluble on expression in E. coli": "not soluble"}
{"sequence": "MLKSELRKKVLHKRINLSEEERRRLSEKVISNLKSLPEFKKSKKVALYCPIKGEVDLTPLFPEVLKEKELILPKVEGNEISLYRVHSPACLGVGAFGIMEPVEGERVNPEDVDFIAVPGVAFDLEGYRLGFGKGYYDRLLKRVKGLKVGVAYSFQVFERLPRDAWDIPVDVLVTEKNVRRLRDGRSLEHHHHHH", "soluble on expression in E. coli": "soluble"}
{"sequence": "MRKPIEHTADIAYEISGNSYEELLEEARNILLEEEGIVLDTEEKEKMYPLEETEDAFFDTVNDWILEISKGWAPWRIKREGNELKVTFRKIRKKEGTEIKALTYHLLKFERDGDVLKTKVVFDT", "soluble on expression in E. coli": "not soluble"}
{"sequence": "MGSDKIHHHHHHMTHDLLDLLRQWHQSPDEAWVLAVLTQVQGSSYRKPGAMMLFHPMGKSYGMLSGGCLEADLRRHAQQVIQSQCVAQVEYDASDESDSSYQLGCGGIVNIMLVTVTKANDYLGFNPLLAALARGDSVEYELSLPANASPCQQASAKLSIVPLSDNLTQAQLKGAHKAVTAYKHEVLTMRLAPPIALGIFGAGLDAQPVAAMAQQLGWQVSVFDERSAYGRLYDFPSVKVVKGPFDAIEPAILKRLDAAIVMSHNLNLDAKALSLLASLSQPHSHNNLAYLALLGPPQRRDRVLRIAGLELADIKCFFSAPAGLALGGELPSSVALSIVSQCHGVLHGSAIIALDEVMGCP", "soluble on expression in E. coli": "not soluble"}
